The chains are these.
B1: anti-CD47/anti-CLDN18.2 bispecific antibody B9 (bispecific antibody, human IgG1, kappa)
heavy: not shown
light: QVQLVESGGGLVQPGGSLRLSCAASGSIFNIPVMGWYRQAPGKQRELVAGISTGGTTNYGDSVKGRFTISRDNAKNTVYLQMNSLKPEDTAVYYCNVLVVSGIGSTLEVWGQGTLVTVSSGGGGSGGGGSDIQMTQSPSSLSASVGDRVTITCRASQDISNHLNWYQQKPGKAPKLLIYYTSRIHSGVPSSFRGSGSGTDYTLTISSLQPEDIATYFCQQGYTLPFTFGSGTKLEIKRTVAAPSVFIFPPSDEQLKSGTASVVCLLNNFYPREAKVQWKVDNALQSGNSQESVTEQDSKDSTYSLSSTLTLSKADYEKHKVYACEVTHQGLSSPVTKSFNRGEC
notes: IgG-like format; NA3S-H1 VHH at the N-terminus of the light chain through Linker1
B2: anti-CD47/anti-CLDN18.2 bispecific antibody B11 (bispecific antibody, human IgG1, kappa)
heavy: not shown
light: B1 light
notes: IgG-like format; NA3S-H1 VHH at the N-terminus of both heavy and light chains
B3: anti-CD47 humanized antibody A7H3L3 (antibody, human IgG1, kappa, V domains shown)
VH: QVQLVQSGAEVKKPGASVKVSCKASGFNIKDIYIYWVRQAPGQGLEWIGKIDPANGNTKYDQKFQGRATITADTSTNTAYLELSSLRSEDTAVYYCARGYGSGFAYWGQGTLVTVSS
VL: DIQMTQSPSSLSASVGDRVTITCRASQDISNHLNWYQQKPGKAPKLLIYYTSRIHSGVPSSFRGSGSGTDYTLTISSLQPEDIATYFCQQGYTLPFTFGSGTKLEIKR
notes: also called A7H3L3 monoclonal antibody; anti-CD47 monoclonal antibody A7H3L3
B4: anti-CD47/anti-CLDN18.2 bispecific antibody B8 (bispecific antibody, human IgG1, kappa)
heavy: not shown
light: DIQMTQSPSSLSASVGDRVTITCRASQDISNHLNWYQQKPGKAPKLLIYYTSRIHSGVPSSFRGSGSGTDYTLTISSLQPEDIATYFCQQGYTLPFTFGSGTKLEIKRTVAAPSVFIFPPSDEQLKSGTASVVCLLNNFYPREAKVQWKVDNALQSGNSQESVTEQDSKDSTYSLSSTLTLSKADYEKHKVYACEVTHQGLSSPVTKSFNRGEC
notes: IgG-like format, human IgG1 / kappa constant regions
B5: anti-CD47/anti-CLDN18.2 bispecific antibody B10 (bispecific antibody, human IgG1, kappa)
heavy: not shown
light: B4 light
notes: IgG-like format; NA3S-H1 VHH at the C-terminus of the heavy chain through Linker1
B6: anti-CD47/anti-CLDN18.2 bispecific antibody B12 (bispecific antibody, human IgG1, kappa)
heavy: not shown
light: B4 light
notes: IgG-like format; NA3S-H1 VHH at the N-terminus of the heavy chain through Linker2 (GGGGS)
B7: anti-CD47 antibody F4AM4-IgG1 (antibody, V domains shown)
VH: QVQLVQSGAEVKKPGASVKMSCKASGYTFTSSVMHWVRQAPGQGLEWIGYINPYTDGTKYAQKFQGRATLTSDKSTSTAYMEFSSLRSEDTAVYYCGRPYYGTRYGSWFAYWGQGTLVTVSS
VL: B3 VL with H32Y, I54L, S61R, R63S, S77N, F87Y, Y92K, T93N, L94Y
notes: Positive control anti-CD47 antibody developed by the applicant
B8: antibody 1F8 (the 1F8 antibody in WO 2018075857 A1) (antibody, V domains shown)
VH: KVQLVESGGGLVKPGGSLRLSCAASGFTFSNAWMNWVRQAPGKGLEWVGRIKRKTDGETTDYAAPVKGRFSISRDDSKNTLYLQMNSLKTEDTAVYYCAGSNRAFDIWGQGTMVTVSA
VL: DIVMTQSPDSLAVSLGERATINCKSSQSVLYSSNNRNYLAWYQQKPGQPPKLLINQASTRASGVPDRFSGSGSGTEFTLIISSLHAEDVAIYYCQQYYTPPLAFGGGTKLEIK

Changes are numbered by the printed parent chain. “And” between values parts separate entries of the source, which are not always exact repeats. Identical values can stand only once.

T1 sequence (Q08722 19-323): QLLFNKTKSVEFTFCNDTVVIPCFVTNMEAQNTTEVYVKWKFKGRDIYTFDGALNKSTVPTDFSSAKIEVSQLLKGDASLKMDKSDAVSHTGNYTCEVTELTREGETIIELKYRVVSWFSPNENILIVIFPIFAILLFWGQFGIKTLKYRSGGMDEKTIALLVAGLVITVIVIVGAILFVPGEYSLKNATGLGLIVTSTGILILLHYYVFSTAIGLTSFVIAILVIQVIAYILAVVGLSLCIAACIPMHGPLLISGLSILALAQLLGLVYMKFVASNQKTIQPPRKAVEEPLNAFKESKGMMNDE

One assay concerns the target T1, human CD47 (human, UniProt Q08722 19-323).
T1 construct: whole, on cells; also called CD47 on red blood cells; endogenous CD47 on NUGC-4 cells
As to the kind of experiment: flow cytometry on human red blood cells, antibody at 15 µg/mL. How it is done:
(§1) Flow cytometry was used to determine whether the bispecific antibody was bound to red blood cells. Another anti-CD47 antibody F4AM4-IgG1 (abbreviated as F4AM4 in the accompanying drawings; the amino acid sequence of the heavy chain is SEQ ID NO: 24, and the amino acid sequence of the light chain is SEQ ID NO: 25) developed by the applicant was used as a positive control antibody.
(§2) The specific method was as follows: red blood cells were isolated from 1 mL of anticoagulant human blood, and the supernatant was aspirated following centrifugation. After the cells were rinsed twice with PBS, 1 mL of PBS was added to resuspend the red blood cells. The red blood cells were diluted to 1×10⁷/mL with PBS, pipetted at 50 μL/well and added to a 96-well round bottom cell culture plate. Then an equal volume of the serially diluted antibody to be tested was added, fully mixed, and incubated at 4° C. for 1 h. After the culture was rinsed with FACS buffer for three times, 0.5 μg of PE-labeled goat anti-human IgG Fc antibody (Abcam, ab98596) was added, followed by incubation at 4° C. for 1 h. Subsequently, the cells were rinsed with FACS buffer for three times and then resuspended by adding 200 μL of FACS buffer, and finally the amount of the antibody binding to the red blood cells (expressed as mean fluorescence intensity (MFI)) was measured by a flow cytometer (Beckman, CytoFLEX AOO-1-1102).
Molecule B1 displayed an MFI of 239 MFI.
On to B2, for which the MFI was 238 MFI.
On the same count and under the same terms, the result for B3 reads 463 MFI; that for B4, 988 MFI; that for B5, 534 MFI.
On the same count and under the same terms, the result for B6 reads 1620 MFI.

For a further assay, the target named is T1, human CD47. The assay is described as follows: flow cytometry on human red blood cells, antibody at 150 µg/mL. How it is done:
as §1, §2
For orientation: In flow cytometry, cells or beads pass a laser one at a time.
With B1, the MFI is 1220 MFI.
On the same count and under the same terms, for B2 the value was 847 MFI; for B3, 608 MFI; for B4, 2140 MFI.
On the same count and under the same terms, for B5 the value was 2490 MFI.
On the same count and under the same terms, for B6 the value was 2530 MFI.

Another assay addresses T1, human CD47. The assay is described as follows: flow cytometry, blocking of SIRPα-mFc binding to CD47 on NUGC-4 cells. How it is done:
(§3) The specific method was as follows: 1×10⁵ NUGC-4 cells or hCLDN18.2-NUGC-4 cells were taken and centrifuged at a low speed (300 g), and the supernatant was removed. The cells at the bottom of the centrifuge tube were rinsed once with a formulated FACS buffer (1×PBS buffer containing 2% FBS). Subsequently, the serially diluted antibody to be tested was added to the rinsed cells, which were then incubated for 1 h. After the cells were rinsed twice with FACS buffer, 100 μL of 1 μg/mL SIRPα-mFc (ACRO, SIA-H52A8) was added, followed by incubation at 4° C. for 1 h. After the cells were rinsed with FACS buffer for three times, 100 μL of 1:200 diluted PE-labeled goat anti-mouse Fc (Abcam, ab98742) was added as the secondary antibody, followed by incubation at 4° C. for 1 h. After centrifugation, the supernatant was removed, the cells were resuspended by adding 200 μL of FACS buffer, and finally the amount of SIRPα-mFc binding to the cells (expressed as mean fluorescence intensity (MFI)) was measured by a flow cytometer (Beckman, CytoFLEX AOO-1-1102).
For orientation: IC50 means the concentration at which inhibition is half-maximal. As for B7, the IC50 is 0.033 µg/mL and 0.226 nM.
As for B8, the IC50 is 15.4 µg/mL and 106 nM.

The target in the next assay is T1, human CD47. As to the kind of experiment: flow cytometry, blocking of SIRPα-mFc binding to CD47 on hCLDN18.2-NUGC-4 cells. How it is done: as §3
Besides, due to the fact that the anti-CLDN18.2 single domain antibody NA3S-H1 was only bound to CLDN18.2, the antibody had no blocking effect.
As for B7, the concentration for half-maximal inhibition (IC50) is 0.056 µg/mL and 0.383 nM.
On the same count and under the same terms, the result for B8 reads 12 µg/mL and 82.3 nM.
On the same count and under the same terms, for B5 the value was 0.765 µg/mL and 4.48 nM.

The record behind these values is patent publication US20250257128A1 (DRAGONBOAT BIOPHARMACEUTICAL SHANGHAI, published 2025).
